This note sets out measurements from US20150353614.

Holding throughout (experiment): cell_activity
The target of data set [1] is IA32 L39M,S127C (Escherichia coli) (UniProt P0A9E0). The settings on record: half the Tmax of IA; E. coli HC175.
Data set [2] deals with IA44 R267H (Escherichia coli) (UniProt P0A9E0). The settings on record: twice the Tmax of IA; E. coli HC175.
For data set [3], the target named is IA (Idi-AraC DBD chimera) (Escherichia coli) (UniProt P0A9E0). The settings on record: no mevalonate.

With “TAGCATTTTTATCCATAAGATTAGCGGATCCTACCTGA (double strand) [I1I2 in PBAD]”, the activity (Tmax relative to IA) in data set [1] was found to be 0.5; in data set [2], 2. Further, the activity in data set [3] (0.36 with 10 mM mevalonate, E. coli HC175) turned out to be 1 relative RFP.

As for “TAGCGGATCCTACCTGAAGATTAGCATTTTTATCCATA (double strand) [I2I1 in PBAD]”, the activity in data set [3] (0.56 with 10 mM mevalonate) was 1.12 relative RFP.
